The target in experiment [1] is Human wt tau protein (441 residues; Sigma-Aldrich) (human) (UniProt P10636). Kind of experiment: reverse ELISA: PAP without peptide on plate coated with human wt tau. In general terms: An ELISA detects its analyte on a solid surface through an enzyme-linked reagent.
For experiment [2], the target named is Highly purified FcγIII. Nature of the experiment: reverse ELISA: PAP without peptide on FcγIII-coated plate.
The target of experiment [3] is Human wt β amyloid peptide 1-40 (amyloid precursor protein (APP) fragment 1-40; Sigma-Aldrich) (human). Nature of the experiment: reverse ELISA: PAP without peptide on plate coated with human wt β amyloid peptide 1-40.
For experiment [4], the target named is Purified human C1q (Quidel Corp.) (human) (UniProt P02745). Kind of experiment: reverse ELISA: PAP without competitor on C1q-coated plate.
Chain of Purified human C1q (Quidel Corp.) (human) (P02745 23-245 limits assumed, chain 1 of 3): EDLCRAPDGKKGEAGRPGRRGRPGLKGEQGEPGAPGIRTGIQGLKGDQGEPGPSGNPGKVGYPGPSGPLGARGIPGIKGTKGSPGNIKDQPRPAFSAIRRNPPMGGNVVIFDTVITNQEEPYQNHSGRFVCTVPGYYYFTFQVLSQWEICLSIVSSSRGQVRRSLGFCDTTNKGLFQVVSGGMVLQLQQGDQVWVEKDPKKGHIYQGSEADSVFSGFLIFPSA
Chain of Purified human C1q (Quidel Corp.) (human) (P02746 28-253 limits assumed, chain 2 of 3, further chain): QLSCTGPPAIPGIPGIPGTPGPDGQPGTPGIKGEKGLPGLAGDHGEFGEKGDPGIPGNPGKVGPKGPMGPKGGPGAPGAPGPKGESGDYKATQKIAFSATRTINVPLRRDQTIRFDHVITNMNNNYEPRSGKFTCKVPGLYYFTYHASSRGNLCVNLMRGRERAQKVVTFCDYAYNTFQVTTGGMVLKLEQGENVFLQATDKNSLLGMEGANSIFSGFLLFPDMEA
Chain of Purified human C1q (Quidel Corp.) (human) (P02747 29-245 limits assumed, chain 3 of 3, further chain): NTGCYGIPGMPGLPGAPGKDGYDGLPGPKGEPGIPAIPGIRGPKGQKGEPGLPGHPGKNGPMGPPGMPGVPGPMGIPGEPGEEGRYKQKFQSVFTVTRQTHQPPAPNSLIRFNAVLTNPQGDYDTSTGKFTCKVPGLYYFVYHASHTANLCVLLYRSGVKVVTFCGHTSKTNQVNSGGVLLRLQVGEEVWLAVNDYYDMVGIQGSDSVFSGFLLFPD
Experiment [5] has as its target Highly purified FcγIIb. Nature of the experiment: reverse ELISA: PAP without peptide on FcγIIb-coated plate.
The target in experiment [6] is Highly purified FcγIIa. Kind of experiment: reverse ELISA: PAP without peptide on FcγIIa-coated plate.

Chain of Preformed immune complex of peroxidase and rabbit anti-peroxidase IgG (PAP complex) (P00433 31-338, one chain of several): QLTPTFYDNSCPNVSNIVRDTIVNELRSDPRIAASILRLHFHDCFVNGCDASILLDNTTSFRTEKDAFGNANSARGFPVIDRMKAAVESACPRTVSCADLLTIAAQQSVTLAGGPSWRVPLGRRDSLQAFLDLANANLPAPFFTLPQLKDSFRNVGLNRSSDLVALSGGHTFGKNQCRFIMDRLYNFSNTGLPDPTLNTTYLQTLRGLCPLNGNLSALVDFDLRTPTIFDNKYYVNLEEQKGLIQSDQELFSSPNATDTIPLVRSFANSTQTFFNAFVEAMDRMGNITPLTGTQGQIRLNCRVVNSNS
Chain of Human wt tau protein (441 residues; Sigma-Aldrich) (human) (P10636 other isoform, or with tags, fused parts or gaps limits assumed): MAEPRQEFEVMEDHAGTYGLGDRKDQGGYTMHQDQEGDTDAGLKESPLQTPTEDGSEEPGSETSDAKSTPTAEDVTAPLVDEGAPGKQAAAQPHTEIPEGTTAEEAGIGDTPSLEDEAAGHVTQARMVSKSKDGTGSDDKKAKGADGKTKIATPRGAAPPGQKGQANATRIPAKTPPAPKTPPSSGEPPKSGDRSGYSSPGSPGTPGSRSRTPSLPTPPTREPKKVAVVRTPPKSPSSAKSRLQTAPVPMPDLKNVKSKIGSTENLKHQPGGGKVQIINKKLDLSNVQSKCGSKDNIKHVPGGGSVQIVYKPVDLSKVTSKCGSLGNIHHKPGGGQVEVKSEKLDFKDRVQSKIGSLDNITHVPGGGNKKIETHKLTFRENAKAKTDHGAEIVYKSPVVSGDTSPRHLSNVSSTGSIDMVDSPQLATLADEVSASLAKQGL

For “Preformed immune complex of peroxidase and rabbit anti-peroxidase IgG (PAP complex) (from UniProt P00433 31-338)”, the OD 405 nm worked out at 0.695 OD in experiment [1]; 1.59 OD in experiment [2]; 3.28 OD in experiment [3]; 2.35 OD in experiment [4]; 1.39 OD in experiment [5]; 1.6 OD in experiment [6].

For the origin of these results see patent publication US20080207498A1, “Methods for Treating Alzheimer's Disease” (priority 2005, published 2008).
